From the Immune Epitope Database (IEDB)

What was measured:
HLA-A*01:01 [1] = assay: IEDB peptide-MHC binding, purified MHC/direct/fluorescence; filed as Kd, often an IC50 or EC50 that approximates it; ≥ and ≤ were set here for values at or beyond the usual limits of such assays; conditions: source organism: Camelpox virus M-96
HLA-A*11:01 [2] = assay: as above; conditions: source organism: Camelpox virus M-96
HLA-A*26:01 = assay: as above; conditions: source organism: Variola virus
HLA-A*26:02 [3] = assay: as above; conditions: source organism: Variola virus
HLA-A*31:01 [4] = assay: as above; conditions: source organism: Camelpox virus M-96
HLA-A*69:01 [5] = assay: as above
HLA-B*07:02 [6] = assay: as above; conditions: source organism: Camelpox virus M-96
HLA-B*08:01 [7] = assay: as above; conditions: source organism: Variola virus
HLA-B*08:02 [8] = assay: as above; conditions: source organism: Variola virus
HLA-B*08:03 [9] = assay: as above; conditions: source organism: Variola virus
HLA-B*15:17 [10] = assay: as above; conditions: source organism: Camelpox virus M-96
HLA-B*18:01 [11] = assay: as above; conditions: source organism: Camelpox virus M-96
HLA-B*27:05 [12] = assay: as above; conditions: source organism: Camelpox virus M-96
HLA-B*40:01 [13] = assay: as above; conditions: source organism: Camelpox virus M-96
HLA-B*44:02 = assay: as above; conditions: source organism: Camelpox virus M-96
HLA-B*48:01 [14] = assay: as above; conditions: source organism: Camelpox virus M-96
HLA-B*57:01 [15] = assay: as above; conditions: source organism: Camelpox virus M-96
HLA-B*58:01 [16] = assay: as above; conditions: source organism: Camelpox virus M-96
HLA-A*68:02 = assay: IEDB peptide-MHC binding, purified MHC/competitive/fluorescence; filed as Kd, often an IC50 or EC50 that approximates it; ≥ and ≤ were set here for values at or beyond the usual limits of such assays
HLA-B*15:09 = assay: as above; conditions: source organism: Vaccinia virus WR
HLA-B*39:01 = assay: as above; conditions: source organism: Vaccinia virus WR
HLA-A*02:01 [17] = assay: IEDB peptide-MHC binding, purified MHC/direct/fluorescence; filed as Kd, often an IC50 or EC50 that approximates it; ≥ and ≤ were set here for values at or beyond the usual limits of such assays; conditions: source organism: Yersinia enterocolitica
HLA-A*02:11 = assay: as above; conditions: source organism: Yersinia enterocolitica subsp. enterocolitica 8081
HLA-A*02:12 = assay: as above; conditions: source organism: Yersinia enterocolitica subsp. enterocolitica 8081
HLA-A*02:16 = assay: as above; conditions: source organism: Yersinia enterocolitica subsp. enterocolitica 8081
HLA-A*02:50 = assay: IEDB peptide-MHC binding, purified MHC/competitive/fluorescence; filed as Kd, often an IC50 or EC50 that approximates it; ≥ and ≤ were set here for values at or beyond the usual limits of such assays; conditions: source organism: Yersinia bercovieri ATCC 43970
HLA-A*01:01 [18] = assay: as above; conditions: source organism: Mycobacterium leprae
HLA-A*02:01 [19] = assay: as above; conditions: source organism: Mycobacterium leprae
HLA-A*02:03 = assay: as above; conditions: source organism: Mycobacterium leprae
HLA-A*02:06 = assay: as above; conditions: source organism: Mycobacterium leprae
HLA-A*11:01 [20] = assay: as above; conditions: source organism: Mycobacterium leprae
HLA-A*26:02 [21] = assay: as above; conditions: source organism: Mycobacterium leprae
HLA-A*26:03 = assay: as above; conditions: source organism: Mycobacterium leprae
HLA-A*30:01 = assay: as above; conditions: source organism: Mycobacterium leprae
HLA-A*31:01 [22] = assay: as above; conditions: source organism: Mycobacterium leprae
HLA-A*69:01 [23] = assay: as above; conditions: source organism: Mycobacterium leprae
HLA-B*07:02 [24] = assay: as above; conditions: source organism: Mycobacterium leprae
HLA-B*08:01 [25] = assay: as above; conditions: source organism: Mycobacterium leprae
HLA-B*08:02 [26] = assay: as above; conditions: source organism: Mycobacterium leprae
HLA-B*08:03 [27] = assay: as above; conditions: source organism: Mycobacterium leprae
HLA-B*15:01 = assay: as above; conditions: source organism: Mycobacterium leprae
HLA-B*15:17 [28] = assay: as above; conditions: source organism: Mycobacterium leprae
HLA-B*18:01 [29] = assay: as above; conditions: source organism: Mycobacterium leprae
HLA-B*27:05 [30] = assay: as above; conditions: source organism: Mycobacterium leprae
HLA-B*35:01 = assay: as above; conditions: source organism: Mycobacterium leprae
HLA-B*40:01 [31] = assay: as above; conditions: source organism: Mycobacterium leprae
HLA-B*46:01 = assay: as above; conditions: source organism: Mycobacterium leprae
HLA-B*48:01 [32] = assay: as above; conditions: source organism: Mycobacterium leprae
HLA-B*57:01 [33] = assay: as above; conditions: source organism: Mycobacterium leprae
HLA-B*58:01 [34] = assay: as above; conditions: source organism: Mycobacterium leprae

Sequence: FENDIDEIL
- Kd (HLA-A*01:01 [1]): ≥ 20 µM
- Kd (HLA-A*11:01 [2]): ≥ 20 µM
- Kd (HLA-A*26:01): ≥ 20 µM
- Kd (HLA-A*26:02 [3]): ≥ 20 µM
- Kd (HLA-A*31:01 [4]): ≥ 20 µM
- Kd (HLA-A*69:01 [5]; source organism: Camelpox virus M-96): ≥ 20 µM
- Kd (HLA-B*07:02 [6]): ≥ 20 µM
- Kd (HLA-B*08:01 [7]): ≥ 20 µM
- Kd (HLA-B*08:02 [8]): ≥ 20 µM
- Kd (HLA-B*08:03 [9]): ≥ 20 µM
- Kd (HLA-B*15:17 [10]): ≥ 20 µM
- Kd (HLA-B*18:01 [11]): 0.122 µM
- Kd (HLA-B*27:05 [12]): ≥ 20 µM
- Kd (HLA-B*40:01 [13]): 0.0053 µM
- Kd (HLA-B*44:02): ≥ 20 µM
- Kd (HLA-B*48:01 [14]): 1.2 µM
- Kd (HLA-B*57:01 [15]): ≥ 20 µM
- Kd (HLA-B*58:01 [16]): ≥ 20 µM
- Kd (HLA-A*68:02; source organism: Vaccinia virus WR): 2.14 µM
- Kd (HLA-B*15:09): ≥ 20 µM
- Kd (HLA-B*39:01): ≥ 20 µM

Sequence: TLLCGAATA
- Kd (HLA-A*02:01 [17]): 0.196 µM
- Kd (HLA-A*02:11): 0.042 µM
- Kd (HLA-A*02:12): 0.021 µM
- Kd (HLA-A*02:16): 0.057 µM
- Kd (HLA-A*69:01 [5]; source organism: Yersinia enterocolitica): 0.394 µM
- Kd (HLA-A*02:50): 0.012 µM

Sequence: TVGYMYIMK
- Kd (HLA-A*01:01 [18]): ≥ 20 µM
- Kd (HLA-A*02:01 [19]): ≥ 20 µM
- Kd (HLA-A*02:03): ≥ 20 µM
- Kd (HLA-A*02:06): ≥ 20 µM
- Kd (HLA-A*11:01 [20]): 0.0049 µM
- Kd (HLA-A*26:02 [21]): ≥ 20 µM
- Kd (HLA-A*26:03): ≥ 20 µM
- Kd (HLA-A*30:01): 0.0488 µM
- Kd (HLA-A*31:01 [22]): ≥ 5 µM
- Kd (HLA-A*68:02; source organism: Mycobacterium leprae): ≥ 20 µM
- Kd (HLA-A*69:01 [23]): ≥ 20 µM
- Kd (HLA-B*07:02 [24]): ≥ 20 µM
- Kd (HLA-B*08:01 [25]): ≥ 20 µM
- Kd (HLA-B*08:02 [26]): ≥ 20 µM
- Kd (HLA-B*08:03 [27]): ≥ 20 µM
- Kd (HLA-B*15:01): ≥ 20 µM
- Kd (HLA-B*15:17 [28]): ≥ 20 µM
- Kd (HLA-B*18:01 [29]): ≥ 20 µM
- Kd (HLA-B*27:05 [30]): ≥ 20 µM
- Kd (HLA-B*35:01): ≥ 20 µM
- Kd (HLA-B*40:01 [31]): ≥ 20 µM
- Kd (HLA-B*46:01): ≥ 20 µM
- Kd (HLA-B*48:01 [32]): ≥ 20 µM
- Kd (HLA-B*57:01 [33]): ≥ 20 µM
- Kd (HLA-B*58:01 [34]): ≥ 20 µM
